Reference: patent publication US20090054344A1

Target: αvβ3 integrin on C-PAE cells (bovine) (UniProt P80746)
Experiment: C-PAE attachment to plates coated with 293-produced Tumstatin; 10 µg/ml peptide; competitor is the Tumstatin coat

Sequence of αvβ3 integrin on C-PAE cells (bovine) (P80746 31-1048): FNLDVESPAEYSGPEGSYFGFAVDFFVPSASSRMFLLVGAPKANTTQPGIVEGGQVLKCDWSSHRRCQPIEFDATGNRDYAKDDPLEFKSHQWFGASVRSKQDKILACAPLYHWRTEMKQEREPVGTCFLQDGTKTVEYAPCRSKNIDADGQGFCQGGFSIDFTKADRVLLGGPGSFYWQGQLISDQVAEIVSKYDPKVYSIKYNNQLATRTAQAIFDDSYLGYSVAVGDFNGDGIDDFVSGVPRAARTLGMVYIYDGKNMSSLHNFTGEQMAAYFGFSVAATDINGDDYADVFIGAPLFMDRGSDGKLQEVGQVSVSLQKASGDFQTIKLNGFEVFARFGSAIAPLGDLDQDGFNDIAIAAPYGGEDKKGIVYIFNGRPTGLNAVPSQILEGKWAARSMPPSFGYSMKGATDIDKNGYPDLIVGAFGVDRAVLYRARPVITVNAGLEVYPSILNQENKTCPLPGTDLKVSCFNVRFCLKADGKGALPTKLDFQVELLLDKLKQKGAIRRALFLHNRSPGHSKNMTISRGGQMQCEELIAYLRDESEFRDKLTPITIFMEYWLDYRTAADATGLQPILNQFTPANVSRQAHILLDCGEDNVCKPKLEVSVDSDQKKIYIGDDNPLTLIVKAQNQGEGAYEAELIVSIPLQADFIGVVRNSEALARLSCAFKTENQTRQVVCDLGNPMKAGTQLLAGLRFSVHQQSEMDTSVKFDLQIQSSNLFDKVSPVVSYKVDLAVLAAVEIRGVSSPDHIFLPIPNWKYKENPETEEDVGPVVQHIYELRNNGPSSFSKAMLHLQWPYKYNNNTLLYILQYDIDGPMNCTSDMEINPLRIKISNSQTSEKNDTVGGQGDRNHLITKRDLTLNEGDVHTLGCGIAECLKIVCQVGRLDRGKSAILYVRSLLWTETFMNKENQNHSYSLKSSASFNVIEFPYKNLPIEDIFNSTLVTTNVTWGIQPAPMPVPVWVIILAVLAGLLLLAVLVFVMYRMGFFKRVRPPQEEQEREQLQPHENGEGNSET

% inhibition of cell attachment: 46.4%
Binder: LQRFTTMPFLFCNVNDVCNF [T3 peptide]
